Data on 11 molecules can be found in patent US20140341881A1.

T1: human kallikrein 14 (hK14) (human) (UniProt Q9P0G3)
T1 sequence (looked up): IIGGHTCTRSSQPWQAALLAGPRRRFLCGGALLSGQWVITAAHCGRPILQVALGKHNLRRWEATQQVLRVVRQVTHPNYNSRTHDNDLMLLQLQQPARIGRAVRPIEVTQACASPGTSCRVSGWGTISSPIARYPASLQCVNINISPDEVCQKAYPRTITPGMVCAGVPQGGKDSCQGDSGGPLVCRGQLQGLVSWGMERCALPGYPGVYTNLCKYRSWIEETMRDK

B1: rACTWT (recombinant wild type alpha-1-antichymotrypsin) (protein, human)
chain: HHHHHHHPNSPLDEENLTQENQDRGTHVDLGLASANVDFAFSLYKQLVLKAPDKNVIFSPLSISTALAFLSLGAHNTTLTEILKGLKFNLTETSEAEIHQSFQHLLRTLNQSSDELQLSMGNAMFVKEQLSLLDRFTEDAKRLYGSEAFATDFQDSAAAKKLINDYVKNGTRGKITDLIKDLDSQTMMVLVNYIFFKAKWEMPFDPQDTHQSRFYLSKKKWVMVPMMSLHHLTIPYFRDEELSCTVVELKYTGNASALFILPDQDKMEEVEAMLLPETLKRWRDSLEFREIGELYLPKFSISRDYNLNDILLQLGIEEAFTSKADLSGITGARNLAVSQVVHKAVLDVFEEGTEASAATAVKITLLSALVETRTIVRFNRPFLMIIVPTDTQNIFFMSKVTNPKQA
B2: AATE8, P01009 25-418 (protein, human)
chain: HHHHHHEDPQGDAAQKTDTSHHDQDHPTFNKITPNLAEFAFSLYRQLAHQSNSTNIFFSPVSIATAFAMLSLGTKADTHDEILEGLNFNLTEIPEAQIHEGFQELLRTLNQPDSQLQLTTGNGLFLSEGLKLVDKFLEDVKKLYHSEAFTVNFGDTEEAKKQINDYVEKGTQGKIVDLVKELDRDTVFALVNYIFFKGKWERPFEVKDTEEEDFHVDQVTTVKVPMMKRLGMFNIQHCKKLSSWVLLMKYLGNATAIFFLPDEGKLQHLENELTHDIITKFLENEDRRSASLHLPKLSITGTYDLKSVLGQLGITKVFSNGADLSGVTEEAPLKLSKAVHKAVLTIDEKGTEAAGAMFLEALQRAIPPEVKFNKPFVFLMIEQNTKSPLFMGKVVNPTQK
B3: AATC11, P01009 25-418 (protein, human)
chain: B2 chain with L362I, Q363P, A365Q, I366T, P367N
B4: AATG9, P01009 25-418 (protein, human)
chain: B2 chain with A361T, L362V, Q363D, R364Y
B5: AATG1, P01009 25-418 (protein, human)
chain: B2 chain with A361G, L362S, Q363L, A365S
B6: AATG1g, P01009 25-418 (protein, human)
chain: B2 chain with A361G, L362S, Q363L, A365G
B7: ACTE8, P01011 24-423 (protein)
chain: MRGSHHHHHHSRHPNSPLDEENLTQENQDRGTHVDLGLASANVDFAFSLYKQLVLKAPDKNVIFSPLSISTALAFLSLGAHNTTLTEILKGLKFNLTETSEAEIHQSFQHLLRTLNQSSDELQLSMGNAMFVKEQLSLLDRFTEDAKRLYGSEAFATDFQDSAAAKKLINDYVKNGTRGKITDLIKDLDSQTMMVLVNYIFFKAKWEMPFDPQDTHQSRFYLSKKKWVMVPMMSLHHLTIPYFRDEELSCTVVELKYTGNASALFILPDQDKMEEVEAMLLPETLKRWRDSLEFREIGELYLPKFSISRDYNLNDILLQLGIEEAFTSKADLSGITGARNLAVSQVVHKAVLDVFEEGTEASAATAVKILQRAILVETRTIVRFNRPFLMIIVPTDTQNIFFMSKVTNPKQA
B8: ACTC11, P01011 24-423 (protein)
chain: B7 chain with L370T, Q371L, A373Q, I374T, L375N
B9: ACTC11D, P01011 24-423 (protein)
chain: B7 chain with L370T, Q371L, A373Q, I374T, L375N, V376D
B10: ACTG9, P01011 24-423 (protein)
chain: B7 chain with I369T, L370V, Q371D, R372Y, I374A
B11: rACTWT (recombinant wild type alpha-1-antichymotrypsin), P01011 24-423 (protein, human)
chain: B1 chain

Positions count from the first letter of the chain named.
Also: test concentration or dose not given here.

One test concerns the target T1, human kallikrein 14 (hK14) (human). In words: cell-based or functional assay.
A word on the % Inhibition: it is the drop in the measured response relative to a control, in per cent. A higher % Inhibition goes with strong suppression. Molecule B1 had a % Inhibition of 17% and a Percentage inhibition of 17%.

The next test concerns the target trypsin (human), P07477. In words: cell-based or functional assay.
B2 had a % Inhibition of 100% and a Percentage inhibition of 100%. For B3, the % Inhibition is 100%.

The molecule B4 returned a % Inhibition of 0% and a Percentage inhibition of 0%. As for B5, the % Inhibition was determined as 100%. On to B6, for which the % Inhibition came to 100%. In turn, B7 came in with a % Inhibition of 100% and a Percentage inhibition of 100%. Molecule B8 registered a % Inhibition of 100%.

B9: the % Inhibition came to 100%. Consider B10, for which the Percentage inhibition came out at 0%. B11 had a % Inhibition of 0% and a Percentage inhibition of 0%.
